{"source": "paper PMC3240630", "about": "“Structural Analysis of the UBA Domain of X-linked Inhibitor of Apoptosis Protein Reveals Different Surfaces for Ubiquitin-Binding and Self-Association” (PLoS ONE, 2011)", "binders": {"B1": {"name": "XIAP-UBA (UBA domain of X-linked inhibitor of apoptosis protein, residues 365-423) (domain or fragment, human, UniProt P98170 365-423, looked up)", "chain": "RIDDTIFQNPMVQEAIRMGFSFKDIKKIMEEKIQISGSNYKSLEVLVADLVNAQKDSMQ", "notes": "PDB 2KNA holds the longer construct 357-449; Used 15N- or 13C/15N-labelled or unlabelled; The tags are separated from XIAP-UBA by a thrombin site (LVPRG); also called XIAP UBA domain; XIAP-UBA WT; source: E. coli BL21 (DE3), purified"}}, "key": {"[1]": {"molecular_target": "the molecule itself", "assay": "15N relaxation (rotational correlation time against concentration); 15N-XIAP-UBA at 0.16-1.9 mM; T1 and T2 at 298 K; non-linear fit of the rotational correlation time; dimer to monomers"}, "[2]": {"molecular_target": "T1, linear-linked diubiquitin (UniProt P0CG48 1-76; P0CG48 1-76)", "T1 construct": "ubiquitin, mature 76-residue protein, first unit; its C-terminal Gly is joined to the N-terminal Met of the next unit; ubiquitin, mature 76-residue protein, second unit; Unlabelled; also called LL-Ub2; linear-linked Ub2", "assay": "NMR titration; 15N-labelled XIAP-UBA (0.5 mM, about 0.3 mM at the last point, predominantly monomeric) titrated with unlabelled monoUb (to molar ratio 5.5), K48-Ub2 or LL-Ub2 (to 2.5); 1H-15N HSQC chemical shift perturbation; 298 K; 20 mM BisTris-HCl pH 6.7, 150 mM NaCl, 5 mM DTT", "details": "both partners purified"}, "[3]": {"molecular_target": "T2, human ubiquitin (mono-ubiquitin) (human, UniProt P0CG48 1-76)", "T2 construct": "ubiquitin, human, the mature 76-residue protein (C-terminal diglycine Gly75-Gly76); Used unlabelled or 15N-labelled", "assay": "NMR titration; 15N-labelled XIAP-UBA (0.5 mM, about 0.3 mM at the last point, predominantly monomeric) titrated with unlabelled monoUb (to molar ratio 5.5), K48-Ub2 or LL-Ub2 (to 2.5); 1H-15N HSQC chemical shift perturbation; 298 K; 20 mM BisTris-HCl pH 6.7, 150 mM NaCl, 5 mM DTT", "details": "both partners purified"}}, "data": [{"binder": "B1", "values": [{"measurement": "Kd", "setting": "[1]", "result": "~900", "unit": "µM"}, {"measurement": "stoichiometry N", "setting": "[1]", "result": 2}, {"measurement": "Kd", "setting": "[2]", "result": "59 ± 11", "unit": "µM"}, {"measurement": "Kd", "setting": "[3]", "result": "249 ± 19", "unit": "µM"}]}]}
